# B1: S8V1-157 Fab (crystallization) (Fab, V domains shown)
# VH: EVQLVQSGAEVKKPGASVKVSCKVSGYRLTALSMHWVRQAPGKGLEWMGGFDPEEDETIYAQNFQGRVTLTEDTSTDTVYMELSSLRSEDTGVYYCATLMGANPFDYWGQGTLIIVSG
# VL: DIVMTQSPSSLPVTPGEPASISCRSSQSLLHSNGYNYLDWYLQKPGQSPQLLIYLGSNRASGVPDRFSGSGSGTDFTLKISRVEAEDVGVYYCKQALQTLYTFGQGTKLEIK
# notes: source: 293F, transient transfection, purified (TALON resin, Superdex 200)
# Molecular target: HA head of A/American black duck/New Brunswick/00464/2010(H4N6) (Influenza A virus A/American black …, strain)
# Assay: crystal structure
# Conditions: both partners purified
binder,measurement,value
B1,binding result,binds

# Source: publication PMC12153317 (mBio, 2025)
